Results taken from the nanobody polyreactivity screen of Harvey et al. (2022).

Assay: yeast display, Sf9 membrane polyspecificity reagent, FACS + sequencing; frameworks hold sequencing errors
How it was run: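 Nanobodies came from a synthetic yeast display library in Saccharomyces cerevisiae BJ5465, induced with galactose for 36–48 hours and stained for 1 hour at 4 °C with 10% biotinylated, detergent-solubilized Sf9 membrane reagent. Cells were enriched on streptavidin microbeads and then FACS-sorted, with low and high (top ~1%) gates set on anti-HA fluorescence for expression and streptavidin fluorescence for reagent binding. Each polyreactivity label reflects the gate a clone came from. Genes were amplified by colony PCR, sequenced by MiSeq 2 × 250 and filtered by CDR length.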

Row | Sequence | polyreactivity (PSR sort gate)
1 | QVQLQESGGGLVQAGGSLRLSCAASGSIFLFYTMGCYRPAPVKEREFVAGITLGTTTYNADSVKGRFTISRDNVKNTVYLQMNSLNPVDSAVYYCAVAVGHYTEFWYWGQGTQVTMSS | high polyreactivity
2 | QVQLQESGGGLVQAGGSLRLSCAASGSIFQYGYMGWYRQAPGKEREFVAGIGGGTSNYADSVKGRFTISRDNAKNTVYLQMNSLKPEDTAVYYCNTDAGDYYGENYWGQGTQVTVSS | low polyreactivity
3 | QVQLQESGGGLVQAGGSLRLSCAASGSIFTQATMGWYRQAPGKERELVAAINFGSSTYYADSVKGRFTISRDNAKSTVYLQMNSLKPEDTAVYYCAVRALWYDFHDYWGQGTQVTVSS | high polyreactivity
4 | QVQLQESGGGLVQAGGSLRLSCAASGSISHYIFMGWYRQAPGKEREFVAGIGYGGTTNYADSVKGRFTISRDNAKNTVYLQMNSLKPEDTAVYYCAAVSIYWGQGTQVTVSS | low polyreactivity
5 | QVQLQESGGGLVQAGGSLRLSCAASGSISHYIFRGWYRQAPGKEPEFVAGIGYGGTTNYADSVKGRFTISRDNAKNTVYLQMNSLKPEDTAMYYCAAREATEFYLYYWGQGTQVTVIS | low polyreactivity
6 | QVQLQESGGGLVQAGGSLRLSCAASGSISNSAAMAWYRQAPGKERELVVSIGHGASSNYADSVKGRFTISRDNAKNTVYLQMNSLKPEDTAVYYCAAYPGFLDGFFYWGQSTQVTVSS | high polyreactivity
7 | QVQLQESGGGLVQAGGSLRLSCAASGSITRYYDMGWYRQAPGKEREFVAGISGGAITYYADSLKGRFTISRDNAKNTVYLQMNSLKPEDTAVYYCAADTGVYQYHSYWGQGTQVTVSS | low polyreactivity
8 | QVQLQESGGGLVQAGGSLRLSCAASGSNSILQSMGWYRQAPGKERELVAGINWGATTYYADSVKGRLTTSRDYAKNSVYLQMNSLKPEDTAVYFCAVPTYYTYPLLYWGQGTQVTVSS | low polyreactivity
9 | QVQLQESGGGLVQAGGSLRLSCAASGSNSILQSMGWYRQAPRKERELVAGINWGATTYYADSVKGRLTTSRDYAINTVYLQMNSLKPEATAVYYCAVPTYYTYPLLYWGQGTQVTVSS | low polyreactivity
10 | QVQLQESGGGLVQAGGSLRLSCAASGTIFRFRYMGWHRQAPVKERELVAGINGGTTTYYADSVIGRFTISRDNAKNTVYLQMNSLKADDTAVYNCAAGASRLTYYDYWGQGTQVTVSS | low polyreactivity
11 | QVQLQESGGGLVQAGGSLRLSCAASGTISDRAGMGWYRQAPAKNAIVATIDRGTNTNYADSVKGRFTISRVNAKNTVYLQMNSLKPEDTAVYNCAADGRYYIYLDYWGQGTQVTVSS | low polyreactivity
12 | QVQLQESGGGLVQAGGSLRLSCAASGTISPLPAMGWYRQAPGKEREFVAGIDTGAITNYADSVKGRFTISRDNAKNTVYLQMNSLKPEDTAVYYCAVFPAAYDYDERYYTYWGQGTQVTVSS | low polyreactivity
13 | QVQLQESGGGLVQAGGSLRLSCAASGTISQEDCMGWYRQATGKQREFVAAIGLGSNTNYADSLKGRFTISRDNAKNTVYLLMNSLKPEDTAVYYCAVSVWQYSDHVYRGQGTQVTVSS | low polyreactivity
14 | QVQLQESGGGLVQAGGSLRLSCAASGTISQEDWMGWYRQAPGKEREFVAAIGLGSNTNYADSLKGRFTISRDNAKKTVYLQMNSLKPEDTAVYYCAVSVWQYSDHVYRGQGTQVTVSS | low polyreactivity
15 | QVQLQESGGGLVQAGGSLRLSCAASGTISYAPHMGWYRQAPGKERELVAGITIGGTTYYADSVKGRFTISRDNANNTVYLQMNSLSPGDTAVYYCAAHSEQYTPFYYWGQGTQVTVSS | low polyreactivity
16 | QVQLQESGGGLVQAGGSLRLSCAASGTISYPRTMGWYRQAPGKEREFVAGIGVGGTTYYADSVKGRFTISRDNAKYTVYLQMNILKPEDAAVYYCAVAAYYDKYYVYWGQGTQVTVSF | low polyreactivity
17 | QVQLQESGGGLVQAGGSLRLSCAASGTMSDRPGMGWYRQAPAKNAIVATIDRGTNTNYADSVKGRFTISRDNAKNTVSLQMNSLKPEDSAVYNCAAVGRYYFSLDYWGPGTQVTVSS | low polyreactivity
18 | QVQLQESGGGLVQAGGSLRLSCAASGYISHAVEMCWYRQAPGKEHELVASISNGGSTNYADSVKGRFTISRDNAKNTVYLQMNSLKSEDTAVYYCAGWTGQVDIHYYWGQGTQVTVSS | low polyreactivity
19 | QVQLQESGGGLVQAGGSLRLSCAASGYISQSSVMGWYRQAPGKEREFVASISYGATTYYADSVKGRFTISRDNAKNTVYLQTNSPKPEDTAVYYCAVLVKRGFSHRYWGQGTQVTVSS | high polyreactivity
20 | QVQLQESGGGLVQAGGSLRLSCAASGYISTFSAEMGWYRQAPGKERELVASIAPGCTTSYADSVKGRFTISRDNAKNTVYLQMNSLKPEDTAVYYCAVDYTLPASFGYWGQGTQVTVSS | high polyreactivity
21 | QVQLQESGGGLVQAGGSLRLSCAASGYISTFSSEMGWYRQAPGKERELVASIAPGCTTSYADSVKGRFTISRDNAKNTVYLQMNSLKPEDTAVYYCAVGNGLSRYVYGDYDYWGQGTQVTVSS | high polyreactivity
22 | QVQLQESGGGLVQAGGSLRLSCAASRNISGSSDLGWYHQAPGKEREFVASITSGGTTYYADSVKGRFTISRDNAKNTVYLQMNSLKPEDTAVYYCAVGDPADAEFGYWGQGTQVTVSS | low polyreactivity

Row | Sequence | polyreactivity (PSR sort gate)
23 | QVQLQESGGGLVQAGGSLRLSCAGTGNIIDADFMRWYRQAPGKERELAASSTEGGSTNYAESVKSRFTISRDNANNTVYLQMNSLKPEVTAVYYCAAIAYPYIPTYFDYDSDYFYWGQGTQVTVSR | high polyreactivity
24 | QVQLQESGGGLVQAGGSLRLSCAPSGSISRYYDMGWYRQAPGKEREYVAGISGGAITYYADSVKGRFTISRDNAKNTVYLQMNSLKPEDTAVYYCAADTCVYQYHSYWGQGTQVTVSS | low polyreactivity
25 | QVQLQESGGGLVQAGGSLRLSCTASGTIYSTSAMGWYRQAPGKDREFVADIASGASTNYADSVKGRFTISRDNAKNTVYLQMNSLKPEDTAVYYCAAKRIRRRYKYDYWGQGTQVTVSS | high polyreactivity
26 | QVQLQESGGGLVQAGGSLRLSGAASGSISSRDAMGWYRQAPGKEREFVATIASGTTTYYADSVKGSFTISRDNAENTVYLQTNSLKPEDTAVYYCAAPTIQIYPFYYWGQGTQVTVSS | high polyreactivity
27 | QVQLQESGGGLVQAGGSLRLSSAASGSISSRDAMGWYRQAPGKEREFVATIASGTTTYYADSVKGSFTISRDNAENTVYLQTNSLKPEDTAVYYCAAPTIQIYPFYYWGQGTQVTVSS | high polyreactivity
28 | QVQLQESGGGLVQAGGSLRLSSAASGTISVHATMGWYRQAPGKERELVAGITDGANTYYADSVKGRFTISRDNSKNTEYLQMNSLKPEDTAVYYCAAYYGTVVHFTYWGQGTQVTVSS | low polyreactivity
29 | QVQLQESGGGLVQAGGSLRLTCAASGTISDSGLMGWYRQAAGKERELVAGISSGGITNYADSVKGRFTISRDNAKNTVYLQMNSLIPEDTAVYWGQGTQVTVSS | low polyreactivity
30 | QVQLQESGGGLVQAGGSLRMSCAASGSIFYVYGMGWYRQAPGKERELVAGINAGTNTNYADSVRGRFTISRDNAKNTVHLQMKSLKPEDTAVYYCAADGNGYQADEYWGQGTQVTVSS | high polyreactivity
31 | QVQLQESGGGLVQAGGSLRMSCAASGSISHYIFMGWYRQAPGKEREFVAGIGYGGTTNYADSVKVRFTISRDNAKNTVYLQMNRLKPEDTAMYYCAAREATEFYLYYWGQGTQVTVSS | low polyreactivity
32 | QVQLQESGGGLVQAGGSLSLSCAESGTISFTRDMVWYRQAPGKEREFVASIDRGASTYYADSVKGRFTISRDNAKNTVYLQMNSLKPEDSAVYYKAVIAPFYSSFAYWGQGTQVTVSS | high polyreactivity
33 | QVQLQESGGGLVQAGGSQRLSCAASGSISILQSRGCYRQAPGKERELVAGINWGATTYYADSVKGRLTTSRDYAKNTVYLQMNSLKPEDTAVYYCAVPTYYTYPLLYWGQGTQVTVSS | low polyreactivity
34 | QVQLQESGGGLVQAGGSQRLSCAASGYIIYFQYMGWYRQAPRKEREFVAAISDGANTNYADSVKGRFTISRDNAKNTVYLQMNSLKPEDTAVYYCAVYADENYYYIYWGQGTQVTVSS | low polyreactivity
35 | QVQLQESGGGLVQAGGSQRLSSAASGYNFYFQYMGWYRQAPGKEREFVAAISDGANTNNADSVKGRFTISRDNAKNTEYLQMNSLKPEDSAVYYCAVYADDNYYYIYWGQGTQVTVSS | low polyreactivity
36 | QVQLQESGGGLVQAGGTITLGYDMGWYRQAPGKEREFVAGIDTGAITYYADSVKGRFTNSRDNAKNTVYLQMNCLKPEDTAVYYCAAIQTHTYAHSYWGQGNQVTVSS | high polyreactivity
37 | QVQLQESGGGLVQAGGTITLGYDMGWYRQAPGKEREFVAGIDTGAITYYADSVKGRFTNSRDNAKNTVYLQMNSLKPEDTAVYYCAAILTHTYAHSYWGQGTQVTVSS | high polyreactivity
38 | QVQLQESGGGLVQAGGTLRLSCAASGSFSADEDMGWYRQAQGKEREFVAGISVGGNTNYADSVKGRFTISRENAKNTVYLQINSLKPEDTAVYYCAVLQDVYDALDYWAQGTQVTVSS | high polyreactivity
39 | QVQLQESGGGLVQAGVSLRLSCAASGSIFADVQMGWYRQAPGKERELVASIIFRGTTTYYADSVKGRFTISRDNAKNTVYLQMSSLKPEDTAVYYCAVGRSEGGDFAYWGQGTHVTVSS | low polyreactivity
40 | QVQLQESGGGLVQASGSLRLSCAASGNIFPDYLMGWYRLAPGKEREFVANITGGSTTNYADSVKGRFTISRDNATNTVYLQMNSLKPEDTAVYYCEVNFGTVVLYLYWGQGTQVTVSS | high polyreactivity
41 | QVQLQESGGGLVQEGGSLRLSCAASGNISPPADMGWYRQAPGKERELVASIGTGGTTNYADSVKGRCTISRDNAKNTVYLQMNSLKPDDTAVYYCAAVRYEYNPYDYWGQGTQVTVSS | low polyreactivity
42 | QVQLQESGGGLVQVGGSLRLSCAASGTIFIYGFLGWNRQAPGKERELVASINLGGITNYADSVKGRFTISRDNAKNTVYLQMISLKPEDTAVYYCAAYVVTGQNYGYWGQGTQVTVSC | low polyreactivity
43 | QVQLQESGGGLVQVGGSLRLSCAASGTIFIYGFLGWNRQAQGKELELVASINLGGITNYADSVKGRFTISRDNAKNTLYLQMISLKTEDTAVYYCAAYVVTGQNYGYWGQGTQVTVSS | low polyreactivity
44 | QVQLQESGGGLVQVGGSLRLSCAASGTIIIYGFLGWNRQAPGKERELVASINLGGITNYADSVKGRFTISRDNAKNTVYLQMISLKPEDTAVYYCAAYVVTGQNYGYWGQGTQVTVSS | low polyreactivity
